This note sets out measurements from publication PMC8345934, “Biochemical Studies of Mitochondrial Malate: Quinone Oxidoreductase from Toxoplasma gondii” (International Journal of Molecular Sciences, 2021).

For data set [1], the target named is T1, malate:quinone oxidoreductase (TgMQO) (Toxoplasma gondii, UniProt Q1KSF3).
T1 construct: gene mqo; lacking the mitochondrial targeting signal (Δ1-37 residues), His-tag purified
T1 sequence (Q1KSF3 38-549): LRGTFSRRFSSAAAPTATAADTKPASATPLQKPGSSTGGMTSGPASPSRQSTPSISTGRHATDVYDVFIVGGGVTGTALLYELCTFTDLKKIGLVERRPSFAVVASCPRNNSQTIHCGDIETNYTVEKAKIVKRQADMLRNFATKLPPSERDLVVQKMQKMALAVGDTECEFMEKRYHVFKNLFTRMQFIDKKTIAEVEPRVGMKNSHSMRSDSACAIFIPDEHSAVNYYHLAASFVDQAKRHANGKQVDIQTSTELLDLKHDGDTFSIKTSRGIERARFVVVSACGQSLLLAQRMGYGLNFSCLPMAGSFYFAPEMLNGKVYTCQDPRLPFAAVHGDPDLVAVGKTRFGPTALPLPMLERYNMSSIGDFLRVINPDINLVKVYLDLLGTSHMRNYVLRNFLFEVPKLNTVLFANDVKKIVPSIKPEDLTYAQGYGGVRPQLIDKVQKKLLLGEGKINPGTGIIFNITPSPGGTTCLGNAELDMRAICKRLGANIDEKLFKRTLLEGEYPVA
Description: spectrophotometric dUQ reduction at […] nm, purified recombinant enzyme. In kind it is biochemical.

Substrate in data set [2]: COC1=C(OC)C(=O)C(C/C=C(\C)CCC=C(C)C)=C(C)C1=O
Description: purified protein. To be noted: FAD ubiquinone binding site.

Substrate in data set [3]: COC1=C(OC)C(=O)C(C/C=C(\C)CC/C=C(\C)CC/C=C(\C)CC/C=C(\C)CC/C=C(\C)CCC=C(C)C)=C(C)C1=O
The data set can be described thus: purified protein. To be noted: FAD ubiquinone binding site.

Substrate in data set [4]: O=C(O)C[C@H](O)C(=O)O
Description: purified protein. To be noted: FAD malate binding site.

Substrate in data set [5]: COC1=C(OC)C(=O)C(C/C=C(\C)CC/C=C(\C)CC/C=C(\C)CCC=C(C)C)=C(C)C1=O
Description: purified protein. To be noted: FAD ubiquinone binding site.

Substrate in data set [6]: COC1=C(OC)C(=O)C(CC=C(C)C)=C(C)C1=O
The data set can be described thus: purified protein. To be noted: FAD ubiquinone binding site.

Substrate in data set [7]: COC1=C(OC)C(=O)C(C)=CC1=O
The data set can be described thus: purified protein. To be noted: FAD ubiquinone binding site.

Substrate in data set [8]: CCCCCCCCCCC1=C(C)C(=O)C(OC)=C(OC)C1=O
The data set can be described thus: purified protein. To be noted: FAD ubiquinone binding site.

One may read the IC50 as the concentration at which inhibition is half-maximal. A word on the Km: it is the concentration of substrate that gives half-maximal velocity. The term Vmax denotes the top rate of the reaction or transport when substrate is in excess.

Turning to `CC(C)=CCC/C(C)=C/CC/C(C)=C/Cc1c(O)c2ccccc2oc1=O` [Ferulenol], the IC50 in data set [1] stood at 822 ± 151 nM.

B1: malate:quinone oxidoreductase (TgMQO) (Toxoplasma gondii) (protein)
chain: LRGTFSRRFSSAAAPTATAADTKPASATPLQKPGSSTGGMTSGPASPSRQSTPSISTGRHATDVYDVFIVGGGVTGTALLYELCTFTDLKKIGLVERRPSFAVVASCPRNNSQTIHCGDIETNYTVEKAKIVKRQADMLRNFATKLPPSERDLVVQKMQKMALAVGDTECEFMEKRYHVFKNLFTRMQFIDKKTIAEVEPRVGMKNSHSMRSDSACAIFIPDEHSAVNYYHLAASFVDQAKRHANGKQVDIQTSTELLDLKHDGDTFSIKTSRGIERARFVVVSACGQSLLLAQRMGYGLNFSCLPMAGSFYFAPEMLNGKVYTCQDPRLPFAAVHGDPDLVAVGKTRFGPTALPLPMLERYNMSSIGDFLRVINPDINLVKVYLDLLGTSHMRNYVLRNFLFEVPKLNTVLFANDVKKIVPSIKPEDLTYAQGYGGVRPQLIDKVQKKLLLGEGKINPGTGIIFNITPSPGGTTCLGNAELDMRAICKRLGANIDEKLFKRTLLEGEYPVA
For the molecule B1, the Km in the data set “purified protein [2]” came out at 13.2 µM; in “purified protein [3]” it was 8.0 ± 3.3 µM; in “purified protein [4]”, 370 ± 140 µM; in the data set “purified protein [5]”, 7.7 ± 4.3 µM; in “purified protein [6]”, 116 ± 16 µM; in the data set “purified protein [7]”, 225 ± 77 µM. The Km in the data set “purified protein [8]” was 17 ± 4.7 µM. Further, the maximal velocity (Vmax) in “purified protein [2]” was 45.1 µmol/min/mg; in the data set “purified protein [3]” it was 3.64 µmol/min/mg; in “purified protein [4]”, 6.3 µmol/min/mg; in the data set “purified protein [5]”, 4.39 µmol/min/mg; in “purified protein [6]”, 44.2 µmol/min/mg; in “purified protein [7]” it was 12.7 µmol/min/mg. For the same molecule, the Vmax in “purified protein [8]” is 12.1 µmol/min/mg.
